These results are taken from article PMC10170197 (Open Biology, 2023).

Data set [1] deals with T1, G3BP1-NTF2 (residues 1–139) (UniProt Q13283 1-139).
T1 construct: G3BP1, NTF2-like domain, residues 1–139; Purified as a dimer; also called G3BP1-NTF2-WT; NTF2-WT; source: E. coli, purified (IMAC, Superdex 75 SEC, TEV cleavage, IMAC flow-through, SEC)
Description: nanoDSF (thermal shift); G3BP1-NTF2 with 10 x molar excess of peptide, 4% DMSO; neutral pH (7.4); buffers as for ITC. The conditions noted are these: both partners purified. For orientation: Differential scanning fluorimetry follows unfolding on heating by fluorescence.

Data set [2] concerns the target T1, G3BP1-NTF2 (residues 1–139). In words: nanoDSF (thermal shift); G3BP1-NTF2 with 10 x molar excess of peptide, 4% DMSO; 25 mM Na-acetate pH 5.1, 150 mM NaCl, 10 mM MgCl2, 10% glycerol. The conditions noted are these: both partners purified.
Data set [3] has the same target. In words: nanoDSF (thermal shift); G3BP1-NTF2 with 10 x molar excess of peptide, 4% DMSO; 25 mM MES pH 6.1, 150 mM NaCl, 10 mM MgCl2, 10% glycerol. The conditions noted are these: both partners purified.
The next data set deals with T2, NTF2-H31YH62Y (UniProt Q13283 1-139, H31Y | H62Y).
T2 construct: G3BP1 NTF2-like domain (limits as the G3BP1-NTF2 construct, residues 1–139) with H31Y and H62Y; also called G3BP1-NTF2-H31YH62Y
Described as above. The conditions noted are these: both partners purified.

The next data set has as its target T3, GFP-G3BP1-H31YH62Y (UniProt Q13283 1-466, H31Y | H62Y).
T3 construct: G3BP1, full length, fused to GFP; source: U2OS ΔΔG3BP1/2 cells, stably transfected, in lysate
Description: co-IP; GFP-Trap/anti-GFP beads from lysates of U2OS ΔΔG3BP1/2 cells stably expressing GFP-G3BP1-WT or mutants; EE lysis buffer; Western blot for Caprin-1 and USP10. The conditions noted are these: partners not purified. For orientation: In western blotting, separated proteins are transferred to a membrane and probed.

T1 sequence (Q13283 1-139): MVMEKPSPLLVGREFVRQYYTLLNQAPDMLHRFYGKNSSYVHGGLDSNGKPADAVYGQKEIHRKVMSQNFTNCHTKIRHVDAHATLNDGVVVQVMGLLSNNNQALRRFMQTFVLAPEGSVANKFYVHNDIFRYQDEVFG
T2 sequence (Q13283 1-139 H31Y/H62Y): as the sequence (Q13283 1-139) above, with H31Y, H62Y counted along it
T3 sequence (Q13283 whole entry H31Y/H62Y, the tested form may be a part): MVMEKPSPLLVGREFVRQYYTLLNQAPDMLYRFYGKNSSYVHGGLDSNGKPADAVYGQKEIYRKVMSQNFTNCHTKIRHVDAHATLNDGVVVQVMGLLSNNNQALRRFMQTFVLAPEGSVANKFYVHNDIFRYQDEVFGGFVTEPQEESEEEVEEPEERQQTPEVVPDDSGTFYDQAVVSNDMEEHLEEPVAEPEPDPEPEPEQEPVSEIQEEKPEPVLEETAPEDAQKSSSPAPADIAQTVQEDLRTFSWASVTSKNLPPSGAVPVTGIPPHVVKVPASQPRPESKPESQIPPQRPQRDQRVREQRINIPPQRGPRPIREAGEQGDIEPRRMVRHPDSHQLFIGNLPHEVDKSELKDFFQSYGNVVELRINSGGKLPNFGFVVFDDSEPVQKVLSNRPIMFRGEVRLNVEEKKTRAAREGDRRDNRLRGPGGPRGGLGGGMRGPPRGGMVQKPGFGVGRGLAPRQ

B1: Caprin-1^356–386 peptide (peptide)
peptide: RQRVQDLMAQMQGPYNFIQDSMLDFENQTLD
notes: Used for co-crystallisation and as peptide ligand in nanoDSF; also called Caprin-1-derived SLiM; source: synthetic peptide
In the case of B1, the results for the “ΔTm (ligand-binding-induced stabilization of NTF2)” value in data set [1], in data set [2] and in data set [3] were 3 °C, 5.5 °C and 2.5 °C, respectively. The binding result in the data set with NTF2-H31YH62Y is on record as “binds”.

B2: Caprin-1, endogenous in U2OS ΔΔG3BP1/2 cells (natural protein, human (endogenous in U2OS), UniProt Q14444 1-709, looked up)
chain: MPSATSHSGSGSKSSGPPPPSGSSGSEAAAGAGAAAPASQHPATGTGAVQTEAMKQILGVIDKKLRNLEKKKGKLDDYQERMNKGERLNQDQLDAVSKYQEVTNNLEFAKELQRSFMALSQDIQKTIKKTARREQLMREEAEQKRLKTVLELQYVLDKLGDDEVRTDLKQGLNGVPILSEEELSLLDEFYKLVDPERDMSLRLNEQYEHASIHLWDLLEGKEKPVCGTTYKVLKEIVERVFQSNYFDSTHNHQNGLCEEEEAASAPAVEDQVPEAEPEPAEEYTEQSEVESTEYVNRQFMAETQFTSGEKEQVDEWTVETVEVVNSLQQQPQAASPSVPEPHSLTPVAQADPLVRRQRVQDLMAQMQGPYNFIQDSMLDFENQTLDPAIVSAQPMNPTQNMDMPQLVCPPVHSESRLAQPNQVPVQPEATQVPLVSSTSEGYTASQPLYQPSHATEQRPQKEPIDQIQATISLNTDQTTASSSLPAASQPQVFQAGTSKPLHSSGINVNAAPFQSMQTVFNMNAPVPPVNEPETLKQQNQYQASYNQSFSSQPHQVEQTELQQEQLQTVVGTYHGSPDQSHQVTGNHQQPPQQNTGFPRSNQPYYNSRGVSRGGSRGARGLMNGYRGPANGFRGGYDGYRPSFSNTPNSGYTQSQFSAPRDYSGYQRDGYQQNFKRGSGQSGPRGAPRGRGGPPRPNRGMPQMNTQQVN
notes: Caprin-1, endogenous protein detected by Western blot; source: endogenous, U2OS ΔΔG3BP1/2 lysate
Turning to B2, in the data set with GFP-G3BP1-H31YH62Y, the “reduction of co-precipitated Caprin-1 relative to wild-type G3BP1” value is approximately 50%.
